Here are results for five molecules from paper PMC4838857, “Tum/RacGAP functions as a switch activating the Pav/kinesin-6 motor” (Nature Communications, 2016).

The target in series [1] is Pav/kinesin-6 (Pavarotti, Pav-KLP), full length with C-terminal 6xHis (Drosophila melanogaster). In words: SEC + other: sucrose gradient sedimentation; hydrodynamic analysis (Siegel and Monty) of centralspindlin purified from co-expression: Superose 6 and 5-20% sucrose gradient, 4 °C.
The target is the same in series [2]. In words: SEC + other: sucrose gradient sedimentation; hydrodynamic analysis (Siegel and Monty) of each protein alone: Stokes radius by Superose 6, S value on 5-20% sucrose gradient, 9 h at 55,000 r.p.m., 4 °C.
Series [3] has the same target. Put plainly: SEC + other: sucrose gradient sedimentation; hydrodynamic analysis (Siegel and Monty) of the in vitro add-back: equal molar Pav/kinesin-6 and Tum/RacGAP, purified apart, mixed and incubated.
For series [4] the target is unchanged.
For series [5], the target named is Tum/RacGAP (Tumbleweed, RacGAP50C), full length with C-terminal 6xHis (Drosophila melanogaster). In words: SEC + other: sucrose gradient sedimentation; hydrodynamic analysis (Siegel and Monty) of each protein alone: Stokes radius by Superose 6, S value on 5-20% sucrose gradient, 9 h at 55,000 r.p.m., 4 °C.
Series [6] shares this target. In words: SEC + other: sucrose gradient sedimentation; hydrodynamic analysis (Siegel and Monty) of the in vitro add-back: equal molar Pav/kinesin-6 and Tum/RacGAP, purified apart, mixed and incubated.
Series [7] addresses Tum/RacGAP (Tumbleweed, RacGAP50C), full length, untagged, co-expressed with Pav/kinesin-6 (Drosophila melanogaster). Put plainly: SEC + other: sucrose gradient sedimentation; hydrodynamic analysis (Siegel and Monty) of centralspindlin purified from co-expression: Superose 6 and 5-20% sucrose gradient, 4 °C.
Substrate in series [8]: Nc1ncnc2c1ncn2[C@@H]1O[C@H](COP(=O)(O)OP(=O)(O)OP(=O)(O)O)[C@@H](O)[C@H]1O
In words: microtubule gliding velocity vs [MgATP], Lineweaver-Burk. The series is classed as biochemical, Drosophila melanogaster. The conditions noted are these: motility-derived Km, saturating taxol-stabilised microtubules, Mg2+, pH 8.0, 150 mM KCl. From the text: microtubule gliding velocity vs [MgATP], Lineweaver-Burk on centralspindlin (co-expressed Pav/Tum)

“Pav/kinesin-6 (Pavarotti, Pav-KLP), full length with C-terminal 6xHis (natural protein)”: the stoichiometry N in series [1], in series [2] and in series [3] was 2 subunits each time.

With “Tum1-65 fragment (1-65aa of Tum/RacGAP) with C-terminal 6xHis (domain or fragment)”, in series [4], the MT gliding velocity of Pav+Tum1-65 (in vitro add-back); Pav/kinesin-6 alone 0 was found to be 0.075 μm s^-1.

In series [4], “Tum/RacGAP (Tumbleweed, RacGAP50C), full length with C-terminal 6xHis (natural protein)” came in with an MT gliding velocity of Pav+Tum (in vitro add-back, equal molar); Pav/kinesin-6 alone 0 of 0.062 μm s^-1. In addition, the stoichiometry N in series [5] and in series [6] was 2 subunits each time.

As for “Tum/RacGAP (Tumbleweed, RacGAP50C), full length, untagged, co-expressed with Pav/kinesin-6 (natural protein)”, the MT gliding velocity of centralspindlin (co-expressed Pav/Tum); Pav/kinesin-6 alone 0 in series [4] was found to be 0.103 μm s^-1. The stoichiometry N in series [7] is 2 subunits.

B1: centralspindlin (co-expressed Pav/Tum) (Drosophila melanogaster) (protein)
chain: MKAVPRTPMRVVPKTPRVHQTVEKQRRDTSDKARDPVNVFCRVRPLQSDADLTSLRVKNSTTIALNPQDQLLQHHKPHNGAQREVQYIFKHVFQPDATQQDVYAAVAQPLVENLLKGRNSLLFTYGVTGSGKTYTMTGNLRHRGIMPRCLDVLFRTISDYQAKKFVFKPDKLNGFEILSEEDALLERQHEMNQRFAGSGRFAFRHKDSDPEIASQASVEPIPLLGLDEDNMYSVFVTYIEIYNNSVYDLLEDSGIQKTLQSKIIREDANRHMFVHGVTEVEVKTVEDALEVFQMGQKRKRMGHTVLNAESSRSHSVFNIRLVQAPTDSQGENVVQDRQNITVSQLSLVDLAGSERSSRTKNTGVRLREAGNINNSLMTLRTCLEYLRENQLAASNGLAPKKVPYRDSKITHMFKNYFDGEGQVSMIVCINPRIEDYDENMQVMKFAEMTQEVQIARATPMKQDLGLTPGRRKANKLFKIAVNNLNELGIPEAKDLEVDVGLVYSLGPDFPAYEMDSPEAQIKIRELMHYLEQRIEKRKKLRANLDIKCDSFRQMLMNLDRDNLQLRTELASLKAVYKQERDRSAALEKKVRIHESSIDVLNNTLSKQERQIEELTFKLNEKENMLTQKEHEKEKQKKKFSSKLAVESDKNKREFELKLREQRVKLQERMRIKDEKLRLVSNILQSEDLPSLPRSQSSENILNEKDRGAYTARTEESSVPATRTDIYATPRHGAAAANNRHRRSRSAGDKWLEHRAANPVPLGTIMQPYLKNRKSVTKLTDLKELTAHGTTKYCLVSQDADTDGDVETKLYKGNVIPTCGGGAQVVFNDVECLKQKSPVHSPTRKRPSNGNISALGGGAVPSTVTSAQDVASRCNLGIEGHSSKKSKI
notes: full-length Pav with C-terminal 6xHis co-expressed with untagged full-length Tum in Sf9 (baculovirus), Ni-NTA and Superose 6; heterotetramer 372 kDa (2 Pav 107 kDa + 2 Tum 65 kDa); cDNA errors in Tum corrected
B1: in series [8], the Km was 79 ± 13 µM.
